Assay results: the DeepSol protein solubility set

Assay: soluble on expression in E. coli; label from the status in PepcDB or PDB records
In the case of “MLKQLLEQATSNNGKARLYAFENTVELTNLIPPTVSYESGGNTLIVGPTAIIESAAAQLSQMNSLTLLSTDGEKGTNPELYYANSVQVSGFLGTFEVLIENHGSTNNLAKVAINSDCFDIVLDLCLNSCMSEEVPVPGYYPVGRGYPKLAEALEEIPTLMGTFDKPKFFRLDTDLCAHSSRGVKGCERCVDACPAGALSSEGSDKTGHRIEINPYLCQGVGTCATACPTEAIHYALPNPEDTQKFIERTLANYEQAGGLDPIVLICSSRHESYNVMALKALPDNVIPIVVEELPSVGIDTWFAALVNGATQVLFAASRFMPQTIIRVLNSEVGIAQELLDQLGIAKETIDILYLESLREGAPTLCTESFDLALGDLQGNKRQRLFTALDALSASRIPVENIVELPANAPYGTVSCESKDC”, the “soluble on expression in E. coli” value is reported as “not soluble”. With “MLKRRRFHVHFGWILFHCQDCMRHEEGSEESESSFTEMVAEELKLREAQAQEDEWRADRLLLDAKKAASQYQKEADKCSMGMETCELAREKAEAALDEQRRLSYMWELRARQGGWKEGTVASDVI” the “soluble on expression in E. coli” value was “soluble”. For “MLLAMELLLEYDYYWKLDNIIANVQRNFPSNSLTVLFPKTHLLISPENMGRVAAKLIRLTEKNQQRNGIVTFKLYYQHEEGEEEEEEEVDEDEDEEGEEGEEEEEEEDEVEEVPQKISEIFNLGAHLVGEPPENCWYLEDILTIPKEIIKDAFGDVTVWYGKSFQLRNSIANRRIHFNLFYTKNYLKKFFMERDGCMMETEFLRHFKDIAN”, the “soluble on expression in E. coli” value was “not soluble”. In the case of “MLLCAGRNETLKKAVPIGVGLIESAINLTRMCLKNPDTESLIFIGSAGSYSPEMELLSVFESVCGYQIEESFSHLNSYTPLDNFIHIETEEQALFERVRVNSSNYIHTSEMFAKKMVQKGVLLENMEFFSVLSVAKAFSLKAKGIFCVSNYVGLNAYQEFKENHAKVKQILENIIDSLII”, the “soluble on expression in E. coli” value is reported as “soluble”. For “MLLETTPIKANHLRSILDYIEQEQLTAEDRNHCMKLSKKKSIEKKTIHPTVNLNGSACFLQSPSDAIFCRHLSLQYALDSLRNGKGKVNLIKHYSSVESIQQHVPLVRDAEFRALLRHPPAGSRVIASKDFGFALDIFFCRMMANNVSHMSAILYIDNHTLSVRLRIKQSVYGQLNYVVSVYDPNDTNVAVRDTHRTARGFLSLDKFISSGPDAQTWADRYVRNCAIAILPLLPVGVPGAIFAGIASRMPFAPIHPSAMLLIMATGQSQQLITLFKQLPILPEKEIIEIITAQNSVGTPALEHHHHHH”, the “soluble on expression in E. coli” value was “soluble”. In the case of “MLLSIIMPAHNAAAYLERTLALLAQQIAGLEQVEVVAIDDASTDETAKILVEFARTHSWLKAISVDFANVGLARQAGIGLAGGQYVTFLDSDDAFLSGGLAWMVNVLRQRAPDLLMTPLQETGQPLDGTEVAGLFQDVVPLSTQQACDLFCEHQRLQGHFAGKCVTRQILLQHDLAAMECYEDMMTTPHWIVEAKSIVWGEVPVYAYYKRPGSLSDRGQTWRYGKEYIRALQSIEAAFAGRIAVWQTAHLWIGFAKDLLKTSTGRQFLDTQPAVAEKIQSISVWKYLVATQVSCKWKIRFLRVRLRLLEHHHHHH”, the “soluble on expression in E. coli” value is reported as “soluble”. In the case of “MLLSRICRFRMLTRFTRLRPILQLRYLAQNSHIEEEYFEELEPTGIISSHETSQEPPKRTGFRSQNLSEDADFVENVVGALTDQRAKDVFVVKSEETEMTPYTHKIICSAFNSRQASAISENLRSLLKIDGVSNGSMSHARRSTKRSNGWYVSEVERVQVHVMSEECREKYDLEAIWAGDDRILDEIDEEKQKILLPPRR”, the “soluble on expression in E. coli” value is reported as “not soluble”. With “MLNEFDQYLHERYLSGKARKDRWYWNNSIQRGRSTAVRENWQWKPAVAYCRYADDFVLIVKGTKAQAEAIREECRGVLEGSLKLRLNMDKTKITHVNDGFIFLGHRIIRKRSRYGEMRVVSTIPQEKARNFAASLTALLSGNYSESKVDMAEQLNRKLKGWAMFYQFVDFKAKVFSYIDRVVFWKLAHWLARKYRTGIASLMRWWCKSPKPGQSKTWVLFGKTNHGKLSGEILYRLVGQGKKLFRWRLPEGNPYLRTETRNTYTSRFTEVAMAFASILEHHHHHH” the “soluble on expression in E. coli” value was “soluble”. In the case of “MLNNAMSVVILAAGKGTRMYSDLPKVLHTLAGKAMVQHVIDAANELGAAHVHLVYGHGGDLLKQALKDDNLNWVLQAEQLGTGHAMQQAAPFFADDEDILMLYGDVPLISVETLQRLRDAKPQGGIGLLTVKLDDPTGYGRITRENGKVTGIVEHKDATDEQRQIQEINTGILIANGADMKRWLAKLTNNNAQGEYYITDIIALAYQEGREIVAVHPQRLSEVEGVNNRLQLSRLERVYQSEQAEKLLLAGVMLRDPARFDLRGTLTHGRDVEIDTNVIIEGNVTLGHRVKIGTGCVIKNSVIGDDCEISPYTVVEDANLAAACTIGPFARLRPGAELLEGAHVGNFVEMKKARLGKGSKAGHLTYLGDAEIGDNVNIGAGTITCNYDGANKFKTIIGDDVFVGSDTQLVAPVTVGKGATIAAGTTVTRNVGENALAISRVPQTQKEGWRRPVKKK”, the “soluble on expression in E. coli” value is reported as “soluble”. In the case of “MLNTILVALDGSEIAERVIQTLGYLVLSPNTNVILCHVFPAPESEIELPADRPQPDLPNFSYFNIDKQMQSYQERLSVKSELELVMGDPADEIIRLANIYKADLVVIGSRGLTGMNRIVQGSVSTQVMEAANCSVLVVKPARN”, the “soluble on expression in E. coli” value is reported as “not soluble”. For “MLPKTWRENFFVLVREVKNLRATAKKISRHFFRKYEPQPGVFWFVFHLSRSHPFPFLKPLLSGDQARGAATPTPCMRTHLFHRIDPIKSEMGGLSTGYITFVWRGVHPRIGPIAAESLTDGKEEDEALSCGYII”, the “soluble on expression in E. coli” value was “not soluble”. For “MLPLNATITQIIEESPLIRTFFFDHKFEDMEPGQFVMVWVRGVDEVPMGLSRNNSITVQKVGEATSKLFELKEGDSFGLRGPFGKGFTLPAKGEKVLIIAGGVGAAPLSPYAEAAFAAGAEVNTVLGARSEEHLLFEGRFEALGTVYVSTDDGSKGFKGFVTDVLKNLDVTSYDRIAVCGPEIMMASVFRFLEEREVLEKSEFSLHRYFKCGIGVCGACCIDRSGLRVCKDGPVFSGTQLIGSELGKYSRDASGRRVKI”, the “soluble on expression in E. coli” value was “not soluble”. For “MLPLSSVELTDIKTDDLDIKWDNVQQFKLGDGSYADVFHVFYKGHDAVLKRSIKEYTDKERENIRREARVVAALNNCENVVRIYGICETLPFRGMIMEYCAGPNLSELVFQLDECKVKFETLRIFKWCHDLTRTLCELNVTYYHGDVKAKNVLVKERPCCCVEGIYENVKIRNTTYSLCTICNGVHLEHLSLKICDFGMSYEHKDKRLYNGGTREFSAPETIRGIYTEKSEVYSFGHLMLVLVIGGPTEDDCAVGQRAFLKMYNNKKYDMSGCKSNSICETIEWCLNNTQESRPTFKQLLSKLNSRHTHYLSLRGTDTRRLEANNEREEFLDHYRIPRKISVHRRTTTTSTCISLSETSGSNQDISVTSAAYLGGPIVNQMFIADTPLASPSASRKFRNDGFEKTNYVENQLYTGDETRKPFLTGGISHPGYSVMRKNSVWKFFVQARNSIRSKITKLVRKRK”, the “soluble on expression in E. coli” value was “not soluble”. In the case of “MLPQHDFIFFFFAFSILSPSPPPLSSFSSPPPPSFSFFIASTSFFSSQPPSHPRVKKCIDTHTTPSTLTFFSAHHPLASPKIHYEVVLYYSFFFKFRLRLLLVSVAHQLLE”, the “soluble on expression in E. coli” value is reported as “not soluble”. With “MLQITKSLSIALTEIEMTALRSQGAGGQNVNKVASAIHLRFDIGASSLPDVYKERLLNLNDQRITKDGIVVIKAQSHRTQEQNREEALKRLQGLISSVITLPKPRRPTKPTRSSQRKRLDAKTKRSAVKALRKSIDELEHHHHHH” the “soluble on expression in E. coli” value was “not soluble”. For “MLQKLIQILRRNEYVKNVYKNTVSNFIETSIPEITPFNARTSSIKGKRLNLLVPSINQEHMFGGISTALKLFEQFDNKKFKKRIILTDATPNPKDLQSFKSFKYVMPEEDKDFALQIVPFNDRYNRTIPVAKHDIFIATAWWTAYAAQRIVSWQSDTYGIPPNKILYIIQDFEPGFYQWSSQYVLAESTYKYRGPQIAVFNSELLKQYFNNKGYNFTDEYFFQPKINTTLKNYINDKRQKEKIILVYGRPSVKRNAFTLIVEALKIFVQKYDRSNEWKIISVGEKHKDIALGKGIHLNSLGKLTLEDYADLLKRSSIGISLMISPHPSYPPLEMAHFGLRVITNKYENKDLSNWHSNIVSLEQLNPENIAETLVELCMSFNNRDVDKKESSNMMFYINEFNEFSFIKEIEEKL”, the “soluble on expression in E. coli” value was “soluble”. For “MLQKTKGIVLHTLKYNDTSIIVDMYTELSGRTSFLVPVPRSRKAAVKSVLFQPLSFIEFEADFRPNATLYRVKEAKSFYPFTSIPYDPYKSSMALFLAEFLYRAVREEAENRPLFAYLQHSVIWLDECREGFANFHLVFLMRLSRFLGLYPNLEDYHTGDYFDLLNACFTSTRPQLHSSYINPEEAGRLRQLMRMNYETMHLFGMSRAERTRCLTIMNDYYRLHLPDFPALKSLDVLKELFD”, the “soluble on expression in E. coli” value was “not soluble”. For “MLQVRMLLRIPTVLRSQELIDKAFSRASRIEEPYFPDKIERIRKEVQDRISTIESISRSFLDRLVKKFPSINNLHPFYSSLIDLMFDIDQYKISLSKIDRTSQMIEQISGEHIRRLKAAKTVEDANRIMRSYYGRFASLVHEIDQDLLFLGKCRDYMKKIPDIDVNLRTYIIAGMPNVGKSSLLAALTTKKPEIAPYPFTTKSVIIGIAEHGYERIQFIDTPGILDRDFDEMNQIEKNAVLALRHIKGTVIFLFDYSDQSLYDPEMQEHLYQQIREHINPDIIRVQTKMDISREKREKIAISVNSEGGLDPLKAIIFGRADDDVRRLEHHHHHH”, the “soluble on expression in E. coli” value was “not soluble”. For “MLRALRGAADLLSTALYKNEMMMSRRYLSTPAPEPAKPSSEETTESTEPATSVEDAGEPMKEKRITQPYSSEALTKLKLDQYPLYVEREWWKTGKRMTFWASWRQLRDVKRREQIQEVGADRMRLKAIKFNTILPQAIRDEAAEKMQKARKYDHPRLILNMCQFTGRQRGKIKPYRLSRHLFRRFADRSALSGVQRAMW”, the “soluble on expression in E. coli” value was “not soluble”. In the case of “MLRIEDLQLAAALAQAPSLSAAARALNVTPPALSMRLRKLEAGLGLALAVRSARRLSLTPEGERLAREAAALLAQLQALPESLRRDDSRLTGTLRVAAPFGYGRRHIAPVLARLAQRHPELRVQLDLRETPWPDHQDADAVVHIGAVRDSSWVTRRLADNERWLCASPQYLQDHGMPREPRDLLHHRCICIRENDEDASLWRFRRADAGAAGRKAAETVRIAPAYVSNDGNVARAWAEQGLGLVVRSQWDAEGAVARGALVRVMPQWQLDSAPVMLLVPGRKGRSARVKALLECFDEQAGHA”, the “soluble on expression in E. coli” value is reported as “not soluble”. In the case of “MLRQIVLMCAIHTACSFSIRDIINGKRGADAAIPAPCPTWHPFACPSGECVPIKYLCDGSPDCSDEYDENKSMCTAATRPPVEETQAFLKALMSAHGKDFLVKVFGPKAKAELSGMGGVDKVAVALSQTPTADLFASEMKLDDGETQHMLEVMEGILNGSTDELTSNEAADFRFFVQKLQETGFF”, the “soluble on expression in E. coli” value is reported as “not soluble”. For “MLRSLVQNPKVRARVLERVDEFRLNNLSNEEVWFRELTLCLLTANSSFISAYQALNCLGQKIYYANEEEIRNILKSCKYRFYNLKAKYIIMAREKVYGRLKEEIKPLADEDQQLARERLLNIKGIGMQEASHFLRNVGYFDLAIIDRHIIDFMRRIGAIGETNVKQLSKSLYISFENILKSIASNLNMSVGILDLFIWYKETNTIVK”, the “soluble on expression in E. coli” value was “soluble”.
